Key:
aMD5 (free peptide) = assay: SPR; value cited from earlier paper
aMD4 (free peptide) = assay: SPR; value cited from earlier paper
[1] = target: Fc proteins lasso-grafted with MET-binding peptides (SPR, Fig. 1c); assay: SPR; aMD4 grafted on Fc; divalent, not true 1:1 affinity
[2] = target: UG2 fusion of the MET-binding peptide aMD4 (human); assay: SPR
[3] = target: UG2 fusion of the MET-binding peptide aMD5 (human); assay: SPR
[4] = target: T1, Fc proteins lasso-grafted with PlxnB1-binding peptides (SPR, Fig. 1c); assay: SPR; PB1m6A9 grafted on Fc; divalent, not true 1:1 affinity
PB1m7 (free peptide) = assay: SPR; value cited from earlier paper
PB1m6A9 (free peptide) = assay: SPR; value cited from earlier paper
[5] = target: T1, Fc proteins lasso-grafted with …; assay: SPR; PB1m7 grafted on Fc; divalent, not true 1:1 affinity
[6] = target: UG2-m6A9, single-chain tandem uteroglobin dimer grafted with the affinity-matured m6A9 peptide (human, UniProt P11684); assay: SPR
[7] = target: UG2 fusion of the PlxnB1-binding peptide PB1m7 (human); assay: SPR
[8] = target: UG2-m6, single-chain tandem uteroglobin dimer with the PB1m6 peptide fused between two UG monomers (human, UniProt P11684); assay: SPR

B1: human MET ectodomain fragment (residues 1-931) with C-terminal biotin acceptor sequence (domain or fragment)
chain: ECKEALAKSEMNVNMKYQLPNFTAETPIQNVILHEHHIFLGATNYIYVLNEEDLQKVAEYKTGPVLEHPDCFPCQDCSSKANLSGGVWKDNINMALVVDTYYDDQLISCGSVNRGTCQRHVFPHNHTADIQSEVHCIFSPQIEEPSQCPDCVVSALGAKVLSSVKDRFINFFVGNTINSSYFPDHPLHSISVRRLKETKDGFMFLTDQSYIDVLPEFRDSYPIKYVHAFESNNFIYFLTVQRETLDAQTFHTRIIRFCSINSGLHSYMEMPLECILTEKRKKRSTKKEVFNILQAAYVSKPGAQLARQIGASLNDDILFGVFAQSKPDSAEPMDRSAMCAFPIKYVNDFFNKIVNKNNVRCLQHFYGPNHEHCFNRTLLRNSSGCEARRDEYRTEFTTALQRVDLFMGQFSEVLLTSISTFIKGDLTIANLGTSEGRFMQVVVSRSGPSTPHVNFLLDSHPVSPEVIVEHTLNQNGYTLVITGKKITKIPLNGLGCRHFQSCSQCLSAPPFVQCGWCHDKCVRSEECLSGTWTQQICLPAIYKVFPNSAPLEGGTRLTICGWDFGFRRNNKFDLKKTRVLLGNESCTLTLSESTMNTLKCTVGPAMNKHFNMSIIISNGHGTTQYSTFSYVDPVITSISPKYGPMAGGTLLTLTGNYLNSGNSRHISIGGKTCTLKSVSNSILECYTPAQTISTEFAVKLKIDLANRETSIFSYREDPIVYEIHPTKSFISGGSTITGVGKNLNSVSVPRMVINVHEAGRNFTVACQHRSNSEIICCTTPSLQQLNLQLPLKTKAFFMLDGILSKYFDLIYVHNPVFKPFEKPVMISMGNENVLEIKGNDIDPEAVKGEVLKVGNKSCENIHLHSEAVLCTVPNDLLKLNSELNIEWKQAISSTVLGKVIVQPDQNF
modifications: biotin on the biotin acceptor sequence (BirA-mediated)
Kd (aMD5 (free peptide)): 2.3 nM | koff (aMD5 (free peptide)): 0.011 s⁻¹ | Kd (aMD4 (free peptide)): 2.4 nM | koff (aMD4 (free peptide)): 0.003 s⁻¹ | Kd [1]: 4.5 nM | koff [1]: 0.0007 s⁻¹ | Kd [2]: 91.6 nM | koff [2]: 0.004 s⁻¹ | Kd [3]: 211 nM | koff [3]: 0.019 s⁻¹

B2: human PlxnB1 ectodomain fragment (residues 1-535) with C-terminal biotin acceptor sequence (domain or fragment)
chain: LQPLPPTAFTPNGTYLQHLARDPTSGTLYLGATNFLFQLSPGLQLEATVSTGPVLDSRDCLPPVMPDECPQAQPTNNPNQLLLVSPGALVVCGSVHQGVCEQRRLGQLEQLLLRPERPGDTQYVAANDPAVSTVGLVAQGLAGEPLLFVGRGYTSRGVGGGIPPITTRALWPPDPQAAFSYEETAKLAVGRLSEYSHHFVSAFARGASAYFLFLRRDLQAQSRAFRAYVSRVCLRDQHYYSYVELPLACEGGRYGLIQAAAVATSREVAHGEVLFAAFSSAAPPTVGRPPSAAAGASGASALCAFPLDEVDRLANRTRDACYTREGRAEDGTEVAYIEYDVNSDCAQLPVDTLDAYPCGSDHTPSPMASRVPLEATPILEWPGIQLTAVAVTMEDGHTIAFLGDSQGQLHRVYLGPGSDGHPYSTQSIQQGSAVSRDLTFDGTFEHLYVMTQSTLLKVPVASCAQHLDCASCLAHRDPYCGWCVLLGRCSRRSECSRGQGPEQWLWSFQPELGCLQ
modifications: biotin on the biotin acceptor sequence (BirA-mediated)
Kd [4]: 0.023 nM | koff [4]: 0.0004 s⁻¹ | Kd (PB1m7 (free peptide)): 275 nM | koff (PB1m7 (free peptide)): 0.01 s⁻¹ | Kd (PB1m6A9 (free peptide)): 0.28 nM | koff (PB1m6A9 (free peptide)): 0.0021 s⁻¹ | Kd [5]: 61.4 nM | koff [5]: 0.055 s⁻¹ | Kd [6]: 8.26 nM | koff [6]: 0.0014 s⁻¹ | Kd [7]: 3250 nM | koff [7]: 0.051 s⁻¹ | Kd [8]: 45.8 nM | koff [8]: 0.0041 s⁻¹

Reference: article PMC7943567 (2021)
